Source: IntAct's records for PubMed 18046461

B1: Mitogen-activated protein kinase 8 (Rattus norvegicus (Rat)), P49185 (parent)
chain: MSRSKRDNNFYSVEIADSTFTVLKRYQNLKPIGSGAQGIVCAAYDAILERNVAIKKLSRPFQNQTHAKRAYRELVLMKCVNHKNIIGLLNVFTPQKSLEEFQDVYIVMELMDANLCQVIQMELDHERMSYLLYQMLCGIKHLHSAGIIHRDLKPSNIVVKSDCTLKILDFGLARTAGTSFMMTPYVVTRYYRAPEVILGMGYKENVDLWSVGCIMGEMVCLKILFPGRDYIDQWNKVIEQLGTPCPEFMKKLQPTVRTYVENRPKYAGYSFEKLFPDVLFPADSEHNKLKASQARDLLSKMLVIDASKRISVDEALQHPYINVWYDPSEAEAPPPKIPDKQLDEREHTIEEWKELIYKEVMDLEERTKNGVIRGQPSPLGAAVINGSQHPVSSPSVNDMSSMSTDPTLASD
partner: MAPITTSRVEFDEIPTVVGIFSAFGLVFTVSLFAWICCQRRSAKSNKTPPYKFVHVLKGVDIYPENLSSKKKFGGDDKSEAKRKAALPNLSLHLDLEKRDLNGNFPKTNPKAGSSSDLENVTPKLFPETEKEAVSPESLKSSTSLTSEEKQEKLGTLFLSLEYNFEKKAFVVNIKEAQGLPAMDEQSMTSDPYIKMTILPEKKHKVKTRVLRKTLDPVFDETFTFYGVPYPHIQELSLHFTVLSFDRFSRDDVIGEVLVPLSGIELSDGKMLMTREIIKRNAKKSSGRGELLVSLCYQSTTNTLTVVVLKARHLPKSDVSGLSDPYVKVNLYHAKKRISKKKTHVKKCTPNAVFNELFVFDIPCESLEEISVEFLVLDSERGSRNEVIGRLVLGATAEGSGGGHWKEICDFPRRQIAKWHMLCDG
B2: Mitogen-activated protein kinase 8 (Rattus norvegicus (Rat)), P49185 (parent)
chain: B1 chain

What was measured:
syt4_rat Syt4, P50232 [1] = variants of: B1; details: with syt4_rat Syt4, P50232
syt4_rat Syt4, P50232 [2] = variants of: B1; details: with syt4_rat Syt4, P50232; remark: listed apart in the source
syt4_rat Syt4, P50232 [3] = variants of: B1; details: with syt4_rat Syt4, P50232; remark: listed apart in the source
jun_rat Jun, P17325 [4] = variants of: B2; details: with jun_rat Jun
jun_rat Jun, P17325 [5] = variants of: B2; details: with jun_rat Jun; remark: listed apart in the source

Row | Variant | effect of a mutation on the interaction (syt4_rat Syt4, P50232 [1]) | effect of a mutation on the interaction (syt4_rat Syt4, P50232 [2]) | effect of a mutation on the interaction (syt4_rat Syt4, P50232 [3]) | effect of a mutation on the interaction (jun_rat Jun, P17325 [4]) | effect of a mutation on the interaction (jun_rat Jun, P17325 [5])
1 | E331N | disrupting interaction | decreasing interaction | – | – | –
2 | D326N | disrupting interaction | decreasing interaction | – | – | –
3 | D162T | disrupting interaction | – | decreasing interaction | – | –
4 | E329N | disrupting interaction | decreasing interaction | – | – | –
5 | D326N | – | – | – | disrupting interaction | decreasing interaction
6 | E329N | – | – | – | disrupting interaction | decreasing interaction
7 | E331N | – | – | – | disrupting interaction | decreasing interaction
8 | D162T | – | – | – | disrupting interaction | –
